According to article PMC6155255, “Synthetic Peptides Derived from Bovine Lactoferricin Exhibit Antimicrobial Activity against E. coli ATCC 11775, S. maltophilia ATCC 13636 and S. enteritidis ATCC 13076” (Molecules : A Journal of Synthetic Chemistry and Natural …, 2017):

Assays:
E. coli ATCC 11775 [1] = type: cell-based, Escherichia coli; conditions: E. coli ATCC 11775, value in brackets (µM), 24 h at 37 °C, performed twice
Experimental: (§1) The MIC and MBC were determined using a microdilution assay. In brief, bacterial strains were incubated for 18 to 24 h at 37 °C in an MH broth until an optical density of 0.15 to 0.30 (620 nm) was obtained. 90 µL of Mueller-Hinton broth (MHB) were mixed with 90 µL of peptide (440 µg/mL), and using a 96-well microtiter plate peptide, serial dilution (200, 100, 50, 25, 12.5, and 6.2 µg/mL) was performed. 10 µL of inoculum (2 × 10^6 CFU/mL) was added to each well. Final volume in each well was 100 µL. Then they were incubated for 24 h at 37 °C; and the absorbance at 620 nm was measured using an Asys Expert Plus ELISA reader. To determine the MBC, an aliquot was taken from each well and was spread onto a MHA plate. After 24 h at 37 °C, the CFU/mL was determined. Each of these tests was performed twice.

[2] = tested on: S. maltophilia ATCC 13636; type: cell-based, Stenotrophomonas maltophilia; conditions: S. maltophilia ATCC 13636, value in brackets (µM), 24 h at 37 °C, performed twice
Experimental: as §1

[3] = tested on: S. enteritidis ATCC 13076; type: cell-based, Salmonella enteritidis; conditions: S. enteritidis ATCC 13076, value in brackets (µM), 24 h at 37 °C, performed twice
Experimental: as §1

E. coli ATCC 11775 [4] = type: cell-based, Escherichia coli; conditions: 200 µg/well, 8 mm wells in Mueller-Hinton agar, 48 h at 37 °C
Experimental: (§2) These tests were carried out following the methodology reported in [36]. Briefly, an inoculum aliquot (200 µL; 2 × 10^6 CFU/mL) was placed on Mueller-Hinton (MH) Agar plates, mixed, and allowed to solidify. Wells were drilled using a punch of 8 mm, and then each hollow was filled with 100 µL of peptide (2000 µg/mL). Incubation for 48 h at 37 °C was then performed. As a non-growth control, ciprofloxacin 1.25 µg/mL was used for all tested strains. Sterile water was used as a growth control.

[5] = tested on: S. maltophilia ATCC 13636; type: cell-based, Stenotrophomonas maltophilia; conditions: 200 µg/well, 8 mm wells in Mueller-Hinton agar, 48 h at 37 °C
Experimental: as §2

[6] = tested on: S. enteritidis ATCC 13076; type: cell-based, Salmonella enteritidis; conditions: 200 µg/well, 8 mm wells in Mueller-Hinton agar, 48 h at 37 °C
Experimental: as §2

[7] = tested on: various strains of E. coli (0111, L361, ATCC 25922, wild strain, and IID-861); conditions: various strains of E. coli (0111, L361, ATCC 25922, wild strain, IID-861); cited from earlier work
Experimental: For BLF, a Minimum Inhibitory Concentration (MIC) and Minimum Bactericidal Concentration (MBC) larger than 200 µg/mL against the evaluated strains were found (Table 1), implying that high concentrations of the protein are required to achieve antibacterial activity. […] Furthermore, its purification is a long and expensive process.

[8] = microdilution, Mueller-Hinton broth

B1: BLF: Bovine lactoferrin, 703 amino acids, 80 kDa glycoprotein; obtained from Sigma-Aldrich (protein, UniProt P24627 20-708, looked up)
Lactotransferrin: APRKNVRWCTISQPEWFKCRRWQWRMKKLGAPSITCVRRAFALECIRAIAEKKADAVTLDGGMVFEAGRDPYKLRPVAAEIYGTKESPQTHYYAVAVVKKGSNFQLDQLQGRKSCHTGLGRSAGWIIPMGILRPYLSWTESLEPLQGAVAKFFSASCVPCIDRQAYPNLCQLCKGEGENQCACSSREPYFGYSGAFKCLQDGAGDVAFVKETTVFENLPEKADRDQYELLCLNNSRAPVDAFKECHLAQVPSHAVVARSVDGKEDLIWKLLSKAQEKFGKNKSRSFQLFGSPPGQRDLLFKDSALGFLRIPSKVDSALYLGSRYLTTLKNLRETAEEVKARYTRVVWCAVGPEEQKKCQQWSQQSGQNVTCATASTTDDCIVLVLKGEADALNLDGGYIYTAGKCGLVPVLAENRKSSKHSSLDCVLRPTEGYLAVAVVKKANEGLTWNSLKDKKSCHTAVDRTAGWNIPMGLIVNQTGSCAFDEFFSQSCAPGADPKSRLCALCAGDDQGLDKCVPNSKEKYYGYTGAFRCLAEDVGDVAFVKNDTVWENTNGESTADWAKNLNREDFRLLCLDGTRKPVTEAQSCHLAVAPNHAVVSRSDRAAHVKQVLLHQQALFGKNGKNCPDKFCLFKSETKNLLFNDNTECLAKLGGRPTYEEYLGTEYVTAIANLKKCSTSPLLEACAFLTR
E. coli ATCC 11775 [1]; aliquot spread on MHA plate
  MBC: > 2.5 µM
E. coli ATCC 11775 [1]; [8]
  MIC: > 2.5 µM
[2]; aliquot spread on MHA plate
  MBC: > 2.5 µM
[2]; [8]
  MIC: > 2.5 µM
[3]; aliquot spread on MHA plate
  MBC: > 2.5 µM
[3]; [8]
  MIC: > 2.5 µM
E. coli ATCC 11775 [4]
  inhibition halo: ~ 9 mm
[5]
  inhibition halo: ~ 9 mm
[6]
  inhibition halo: ~ 9 mm
[7]
  BLF concentration required for exhibiting an antibacterial effect: greater than 200 µg/mL
